In article PMC9040739, “Entamoeba histolytica EHD1 Is Involved in Mitosome-Endosome Contact” (mBio, 2022):

Substrate: Nc1ncnc2c1ncn2[C@@H]1O[C@H](COP(=O)(O)OP(=O)(O)OP(=O)(O)O)[C@@H](O)[C@H]1O
Assay: coupled fluorescent ADP assay (ADP-hexokinase/G6PDH/diaphorase/resazurin)
Type: biochemical, Entamoeba histolytica
Details: MgCl2, pH 7.5, 37°C, 12.5-2,500 μM ATP

B1: His-EHD1 (Entamoeba histolytica HM-1:IMSS) (protein)
chain: MFGKKKQKPQMDTSYVSVIDGVKKIYDEKIKKLEADYKYDYLVSPLMRQADFEAKPMVLFLGQYSTGKTTFINYLLNYDYPGSHIGPEPTTDGFMAIMHGPNSTNIPGNTLCVQSDKPFTSLSKFGNEFMAKFNGSFCNLPLLEHLTFIDSPGVLSGEKQRIGRSYDFNEVVRWFAERADMIVLVFDAHKLDISDEFKGVIEAVKKHSEKMRLVLNKADSIDSQQLMRVYGALMWSLGKVMQTPECLRVYVSSFWDQPFKESLFTGLFEKERDDLMYDLHALPKQATVRKVNELCKRARLAKANAYITSYLREQMPTFGKDKKKAELLKDLNTVFNTVMKRYNLAAGDFPPIDVYKDRLQNCDFSKFPKLDMRVINAVDDALGTQIPLLLKKFPMEDDLSTHTNPFEVASNFEKCCITLDVSEDEMNSYQKEFDKLPKNEVGKVLGKDCFAPLMASGADKKDLQKIWSIADSGKEGALNAHQYILAKALVRTLLQSGGYPDNLPPVE
notes: full length (ORF primers start to stop), N-terminal His tag (pColdI), tag kept; E. coli BL21, Ni-NTA; native mass 58 kDa
Km: 94.91 ± 16.63 µM
